This is an account of results in patent US20220153790A1 (TECHNISCHE UNIVERSIT T M NCHEN, published 2022).

For orientation: Kd means the constant that tells how readily two partners part at equilibrium.

The target in the assay is T1, unglycosylated, monobiotinylated extracellular domain of human CD98hc produced in E. coli (human, UniProt P08195 111-529, single biotin on the N-terminal biotin acceptor peptide (BAP)).
T1 construct: also called hCD98hcED; CD98hcED; not shown: N-terminal biotin acceptor peptide (BAP) from pASK-IBA5(+)-BAP-hCD98hcED
T1 sequence: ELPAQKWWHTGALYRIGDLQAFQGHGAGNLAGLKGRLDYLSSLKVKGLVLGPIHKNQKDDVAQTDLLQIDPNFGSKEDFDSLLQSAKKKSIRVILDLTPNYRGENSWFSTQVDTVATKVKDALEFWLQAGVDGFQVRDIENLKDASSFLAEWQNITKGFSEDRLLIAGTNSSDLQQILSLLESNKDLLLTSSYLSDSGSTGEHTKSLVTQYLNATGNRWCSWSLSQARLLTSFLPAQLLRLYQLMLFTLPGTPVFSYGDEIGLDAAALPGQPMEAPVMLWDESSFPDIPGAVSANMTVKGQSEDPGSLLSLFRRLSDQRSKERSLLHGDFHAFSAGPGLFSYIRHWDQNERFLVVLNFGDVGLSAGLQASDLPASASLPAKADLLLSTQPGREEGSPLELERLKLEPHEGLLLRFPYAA
Experiment: not given

B1: SEQ ID NO 4 (designed binder)
chain: QDSTSDLIPAPPLSKVPLQQNFQDNQFHGKWYVVGRAGNTGLREDKDPGKMFATIYELKEDKSYNVTYVWSGQKKCMYSIVTFVPGSQPGEFTLGNIKSAPGRTSWLVRVVSTNYNQHALVFFKSVTQNREGFAITLYGRTKELTSELKENFIRFSKSLGLPENHIVFPVPIDQCIDG
B1: the Kd was ≤ 5 nM.
